Consider 34 sequences from the supplement of paper PMC7877785.

± gives the uncertainty stated by the source.

A short description of the series: self-splicing fitness, log relative to wild type (ln ratio); higher = more splicing; Tetrahymena group I intron in knt gene, E. coli kanamycin selection, DiMSum; sequences stand for … in CUCUCU…GGAGGGAAAAGUUAUCAGGCAUGCACCUGGUAGCUAGUCUUUAAACCAAUAGAUUGCAUCGGUUUAAAAGGCAAGACCGUCAAAUUGCGGGAAAGGGGUCAACAGCCGUUCAGUACCAAGUCUCAGGGGAAACUUUGAGAUGGCCUUGCAAAGGGUAUGGUAAUAAGCUGACGGACAUGGUCCUAACCACGCAGCCAAGUCCUAAGUCAACAGAUCUUCUGUUGAUAUGGAUGCAGUUCACAGACUAAAUGUCGGUCGGGGAAGAUGUAUUCUUCUCAUAAGAUAUAGUCGGACCUCUCCUUAAUGGGAGCUAGCGGAUGAAGUGAUGCAACACUGGAGCCGCUGGGAACUAAUUUGUAUGCGAAAGUAUAUUGAUUAGUUUUGGAGUACUCGUGGUCG
An outline of the steps:
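Pooled colonies went to amplicon sequencing on an Illumina HiSeq 2500 after six replicate transformations. The plates were LB agar with 100 μg/mL carbenicillin, 50 μM IPTG and 0.2% rhamnose, with or without 25 μg/mL kanamycin, incubated overnight at 37°C or 30°C. The E. coli BL21(DE3) library had all eight P1ex-region intron nucleotides randomised, the intron placed in the knt kanamycin-resistance gene on pET-22b(+). DiMSum fitness is the error-weighted combination of replicate fold changes, kanamycin against none, normalised to wild type.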

Regarding UGACAGCAAUAUUACGCAAC, the “self-splicing fitness (ln)” value is, setting by setting: (30 °C) -2.25 ± 0.29; (37 °C) -1.24 ± 0.25.

Regarding GCCCAGCAAUAUUACGCUGC, where the note is “37 °C”, the “self-splicing fitness (ln)” value was -1.55 ± 0.41. Consider GAAUAGCAAUAUUACGUUGG, for which the “self-splicing fitness (ln)” value reads like this: (30 °C) -3.3 ± 0.16; (37 °C) -2.77 ± 0.2. In the same order, the values of CAUUAGCAAUAUUACGAUGA are -2.12 ± 0.2 and -1.09 ± 0.15. Turning to GUGGAGCAAUAUUACGACCA, the “self-splicing fitness (ln)” value (37 °C) is -1.24 ± 0.35. With CACGAGCAAUAUUACGUACU, the “self-splicing fitness (ln)” value runs as follows: (30 °C) -2.77 ± 0.16; (37 °C) -2.54 ± 0.27.

Turning to CUGAAGCAAUAUUACGGACA, the “self-splicing fitness (ln)” value is -1.79 ± 0.14 (30 °C) and -2.22 ± 0.27 (37 °C). Regarding CAUUAGCAAUAUUACGUACG, the “self-splicing fitness (ln)” value by setting is: (30 °C) -0.341 ± 0.09; (37 °C) 0.593 ± 0.12. In the same order, the values of CUCCAGCAAUAUUACGAACA are -3.95 ± 0.43 and -2.23 ± 0.21. Consider CAACAGCAAUAUUACGAGCC, for which the “self-splicing fitness (ln)” value by setting is: (30 °C) -3.76 ± 0.46; (37 °C) -1.95 ± 0.29. As for AUUUAGCAAUAUUACGUUGC, where the note is “30 °C”, the “self-splicing fitness (ln)” value is -3.26 ± 0.41. For the sequence CAAAAGCAAUAUUACGCAGU, the “self-splicing fitness (ln)” value reads like this: (30 °C) -4.31 ± 0.24; (37 °C) -3.64 ± 0.27. In the same order, the values of GCGUAGCAAUAUUACGAGUA are -1.64 ± 0.16 and -0.623 ± 0.13. Regarding UCAGAGCAAUAUUACGGAAC, the “self-splicing fitness (ln)” value by setting is: (30 °C) -2.43 ± 0.2; (37 °C) -2.49 ± 0.26. In the same order, the values of UCAUAGCAAUAUUACGCUCG are -0.651 ± 0.15 and -0.277 ± 0.17. Taken in the same sequence, the figures for UAAUAGCAAUAUUACGGACA were -1.12 ± 0.17 and -0.393 ± 0.16. In the same order, the values of UGUAAGCAAUAUUACGGGCC are -2.87 ± 0.41 and -1.23 ± 0.41. CGUGAGCAAUAUUACGGCCU: the “self-splicing fitness (ln)” value is, setting by setting: (30 °C) -2.22 ± 0.23; (37 °C) -3.57 ± 0.46. Taken in the same sequence, the figures for GAGCAGCAAUAUUACGGGGU were -2.96 ± 0.16 and -3.18 ± 0.17.

Consider UACAAGCAAUAUUACGGUCC, for which the “self-splicing fitness (ln)” value runs as follows: (30 °C) -1.38 ± 0.18; (37 °C) -1.34 ± 0.18. On to GUUCAGCAAUAUUACGGUAC, for which the “self-splicing fitness (ln)” value was -2.69 ± 0.19 (30 °C) and 0.0172 ± 0.14 (37 °C). For UUGGAGCAAUAUUACGGCGG, the “self-splicing fitness (ln)” value reads like this: (30 °C) -2.99 ± 0.33; (37 °C) -1.88 ± 0.22.

AUCAAGCAAUAUUACGAUUG: the “self-splicing fitness (ln)” value runs as follows: (30 °C) -4.34 ± 0.3; (37 °C) -3.41 ± 0.3. Taken in the same sequence, the figures for GGUUAGCAAUAUUACGAUUG were -1.56 ± 0.19 and -1.1 ± 0.21. Taken in the same sequence, the figures for UUGAAGCAAUAUUACGCAGU were -1.2 ± 0.3 and -1.54 ± 0.32. In the same order, the values of GGACAGCAAUAUUACGAAGA are -2.27 ± 0.22 and -0.517 ± 0.19. For the sequence UGAAAGCAAUAUUACGGACU, the “self-splicing fitness (ln)” value runs as follows: (30 °C) 0.219 ± 0.079; (37 °C) 0.125 ± 0.094. Taken in the same sequence, the figures for AACUAGCAAUAUUACGAGGC were -3.35 ± 0.2 and -2.62 ± 0.35.

For UCGAAGCAAUAUUACGCGAC, the “self-splicing fitness (ln)” value (30 °C) was -3.47 ± 0.25 and the “self-splicing fitness (ln)” value (37 °C) was -2.2 ± 0.26. With GUCGAGCAAUAUUACGUAAA, the “self-splicing fitness (ln)” value by setting is: (30 °C) -2.73 ± 0.29; (37 °C) -0.959 ± 0.27. Consider UUCCAGCAAUAUUACGUGCC, for which, where the note is “37 °C”, the “self-splicing fitness (ln)” value is -2.5 ± 0.39. On to UAUGAGCAAUAUUACGAUGU, for which the “self-splicing fitness (ln)” value by setting is: (30 °C) -4.02 ± 0.37; (37 °C) -3.62 ± 0.46. Take GCGUAGCAAUAUUACGUCGU: the “self-splicing fitness (ln)” value (30 °C) was -2.13 ± 0.12 and the “self-splicing fitness (ln)” value (37 °C) is -2.04 ± 0.18. On to UUCCAGCAAUAUUACGGGCA, for which the “self-splicing fitness (ln)” value reads like this: (30 °C) -0.578 ± 0.067; (37 °C) 0.454 ± 0.089.
